Data: patent US20250099534A1 (TECHNION RESEARCH AND DEVELOPMENT FOUNDATION, published 2025)
Blank lines part the entries; values can stand above or below the binder they belong to. Starred links: 1 amine or outer side, 2 acyl side, 3 side chain; linkers in the order of their positions; H or OH if unused. Positions of bridges follow the written chain, without caps; N, C: chain ends. Primed or numbered codes have the meaning given here. No end group written: not given here. *: point of attachment. mClBz(3) = 3-(chloromethyl)benzoic acid, non-amino acid initiator forming a thioether with the C-terminal-region Cys, O=C(c1cccc(C[*:3])c1)[*:2]; mBz = 3-(methylene)benzoyl on the N-terminal amine, O=C(c1cccc(C[*:3])c1)[*:2]; Bn = c1ccc(C*)cc1; Acm = CC(=O)NC*

Biological target: T1, biotinylated-Lys63 linked Di-Ub (UniProt P0CG47 1-76, isopeptide bond between the C-terminal Gly of the distal Ub and Lys63 of the proximal Ub; biotin tag at the N-terminus of the distal Ub)
T1 construct: mature; Immobilised on streptavidin plates or on the SPR CAPture chip; also called K63-linked Di-Ub; biotin-Lys63 linked Di-Ub
Experiment: fluorescence-based competitive assay: unlabeled peptide, 5.0 molar equiv., pre-bound to biotinylated Lys63-linked Di-Ub on a streptavidin plate, then competed with CP1-FITC (1 equiv.); signal change relative to 1 (CP1), Y=[1-(a/b)]x100
Protocol: Streptavidin-coated microplate (96 well plate) was washed with HEPES buffer (50 Mm HEPES, 150 Mm NaCl, pH 7.30) and then in each well incubated 1 μg of biotinylated-Lys63-linked Di-Ub in 100 μl of the same buffer at RT. for 30 min. Additional wells were kept without biotinylated-Lys63-Di-Ub for blank subtraction. After the washing step, peptide standard (CP1) and unlabeled peptides were incubated (5.0 molar equivalent relative to biotin-Lys63-linked Di-Ub) at RT for 30 minutes for saturation binding to the target. Then 1 molar equivalent of FITC labeled peptide-standard (CP1-FITC) relative to biotinylated-Lys63-linked Di-Ub was incubated to compete with unlabeled peptides at RT for 30 min. After releasing bounded peptides on treatment with 6 M Guanidinium chloride (Gnd·HCl), the fluorescence values were measured (λex=480 nm and λem=525 nm). These values were normalized and then calculated the relative change in binding with the following formula:
Y=[1−(a/b)]×100 [0289] Where Y=Signal change relative to the standard (CP1) (in terms of %). [0290] a=Measured signal value of each peptide candidate (in Relative Fluorescence Units). [0291] b=Measured signal value of standard peptide (CP1). The dissociation constant (KD) of fluorescein-labeled peptide (CP1-FITC) was calculated in accordance with the literature procedure (Vamisetti G B et al., 2021).

binding result: binds
B1: 3 (peptide)
peptide: mBz-LCIWIGSSKNPYILCG-NH2
modifications: thioether N-15
SMILES: CC[C@H](C)[C@@H]1NC(=O)[C@H](Cc2c[nH]c3ccccc23)NC(=O)[C@H]([C@@H](C)CC)NC(=O)[C@H](CS)NC(=O)[C@H](CC(C)C)NC(=O)c2cccc(c2)CSC[C@@H](C(=O)NCC(N)=O)NC(=O)[C@H](CC(C)C)NC(=O)[C@H]([C@@H](C)CC)NC(=O)[C@H](Cc2ccc(O)cc2)NC(=O)[C@@H]2CCCN2C(=O)[C@H](CC(N)=O)NC(=O)[C@H](CCCCN)NC(=O)[C@H](CO)NC(=O)[C@H](CO)NC(=O)CNC1=O
notes: also called CP1-L2C; cyclic peptide 3

binding result: binds
Binder: {mClBz(3)}-C(CH2CONH2)LIWIGSSKNPYILCG (bridge N-15; not fully specified (C-terminus, bridges)) [cyclic peptide 17, CP1-L1C-CH2CONH2]

binding result: binds
B2: 14 (peptide)
peptide: mBz-C(Acm)LIWIGSSKNPYILCG-NH2
modifications: thioether N-15
SMILES: CC[C@H](C)[C@@H]1NC(=O)[C@H](Cc2c[nH]c3ccccc23)NC(=O)[C@H]([C@@H](C)CC)NC(=O)[C@H](CC(C)C)NC(=O)[C@H](CSCNC(C)=O)NC(=O)c2cccc(c2)CSC[C@@H](C(=O)NCC(N)=O)NC(=O)[C@H](CC(C)C)NC(=O)[C@H]([C@@H](C)CC)NC(=O)[C@H](Cc2ccc(O)cc2)NC(=O)[C@@H]2CCCN2C(=O)[C@H](CC(N)=O)NC(=O)[C@H](CCCCN)NC(=O)[C@H](CO)NC(=O)[C@H](CO)NC(=O)CNC1=O
notes: Acm-protected precursor of cyclic peptide 2; also called CP1-L1C-Acm; cyclic peptide 14

binding result: binds
B3: 8 (peptide)
peptide: mBz-LLIWIGCSKNPYILCG-NH2
modifications: thioether N-15
SMILES: CC[C@H](C)[C@@H]1NC(=O)[C@H](Cc2c[nH]c3ccccc23)NC(=O)[C@H]([C@@H](C)CC)NC(=O)[C@H](CC(C)C)NC(=O)[C@H](CC(C)C)NC(=O)c2cccc(c2)CSC[C@@H](C(=O)NCC(N)=O)NC(=O)[C@H](CC(C)C)NC(=O)[C@H]([C@@H](C)CC)NC(=O)[C@H](Cc2ccc(O)cc2)NC(=O)[C@@H]2CCCN2C(=O)[C@H](CC(N)=O)NC(=O)[C@H](CCCCN)NC(=O)[C@H](CO)NC(=O)[C@H](CS)NC(=O)CNC1=O
notes: also called CP1-S7C; cyclic peptide 8

binding result: binds
B4: 11 (peptide)
peptide: mBz-LLIWIGSSKNCYILCG-NH2
modifications: thioether N-15
SMILES: CC[C@H](C)[C@@H]1NC(=O)[C@H](Cc2c[nH]c3ccccc23)NC(=O)[C@H]([C@@H](C)CC)NC(=O)[C@H](CC(C)C)NC(=O)[C@H](CC(C)C)NC(=O)c2cccc(c2)CSC[C@@H](C(=O)NCC(N)=O)NC(=O)[C@H](CC(C)C)NC(=O)[C@H]([C@@H](C)CC)NC(=O)[C@H](Cc2ccc(O)cc2)NC(=O)[C@H](CS)NC(=O)[C@H](CC(N)=O)NC(=O)[C@H](CCCCN)NC(=O)[C@H](CO)NC(=O)[C@H](CO)NC(=O)CNC1=O
notes: also called CP1-P11C; cyclic peptide 11

binding result: binds
B5: 7 (peptide)
peptide: mBz-LLIWICSSKNPYILCG-NH2
modifications: thioether N-15
SMILES: CC[C@H](C)[C@@H]1NC(=O)[C@H](Cc2c[nH]c3ccccc23)NC(=O)[C@H]([C@@H](C)CC)NC(=O)[C@H](CC(C)C)NC(=O)[C@H](CC(C)C)NC(=O)c2cccc(c2)CSC[C@@H](C(=O)NCC(N)=O)NC(=O)[C@H](CC(C)C)NC(=O)[C@H]([C@@H](C)CC)NC(=O)[C@H](Cc2ccc(O)cc2)NC(=O)[C@@H]2CCCN2C(=O)[C@H](CC(N)=O)NC(=O)[C@H](CCCCN)NC(=O)[C@H](CO)NC(=O)[C@H](CO)NC(=O)[C@H](CS)NC1=O
notes: also called CP1-G6C; cyclic peptide 7

binding result: binds
B6: 12 (peptide)
peptide: mBz-LLIWIGSSKNPCILCG-NH2
modifications: thioether N-15
SMILES: CC[C@H](C)[C@@H]1NC(=O)[C@H](Cc2c[nH]c3ccccc23)NC(=O)[C@H]([C@@H](C)CC)NC(=O)[C@H](CC(C)C)NC(=O)[C@H](CC(C)C)NC(=O)c2cccc(c2)CSC[C@@H](C(=O)NCC(N)=O)NC(=O)[C@H](CC(C)C)NC(=O)[C@H]([C@@H](C)CC)NC(=O)[C@H](CS)NC(=O)[C@@H]2CCCN2C(=O)[C@H](CC(N)=O)NC(=O)[C@H](CCCCN)NC(=O)[C@H](CO)NC(=O)[C@H](CO)NC(=O)CNC1=O
notes: also called CP1-Y12C; cyclic peptide 12

binding result: binds
B7: 10 (peptide)
peptide: mBz-LLIWIGSSKCPYILCG-NH2
modifications: thioether N-15
SMILES: CC[C@H](C)[C@@H]1NC(=O)[C@H](Cc2c[nH]c3ccccc23)NC(=O)[C@H]([C@@H](C)CC)NC(=O)[C@H](CC(C)C)NC(=O)[C@H](CC(C)C)NC(=O)c2cccc(c2)CSC[C@@H](C(=O)NCC(N)=O)NC(=O)[C@H](CC(C)C)NC(=O)[C@H]([C@@H](C)CC)NC(=O)[C@H](Cc2ccc(O)cc2)NC(=O)[C@@H]2CCCN2C(=O)[C@H](CS)NC(=O)[C@H](CCCCN)NC(=O)[C@H](CO)NC(=O)[C@H](CO)NC(=O)CNC1=O
notes: also called CP1-N10C; cyclic peptide 10

binding result: binds
Binder: {mClBz(3)}-C(CH3)LIWIGSSKNPYILCG (bridge N-15; not fully specified (C-terminus, bridges)) [cyclic peptide 15, CP1-L1C-CH3]

binding result: binds
B8: 6 (peptide)
peptide: mBz-LLIWCGSSKNPYILCG-NH2
modifications: thioether N-15
SMILES: CC[C@H](C)[C@@H]1NC(=O)[C@H](CC(C)C)NC(=O)[C@H](CC(C)C)NC(=O)c2cccc(c2)CSC[C@@H](C(=O)NCC(N)=O)NC(=O)[C@H](CC(C)C)NC(=O)[C@H]([C@@H](C)CC)NC(=O)[C@H](Cc2ccc(O)cc2)NC(=O)[C@@H]2CCCN2C(=O)[C@H](CC(N)=O)NC(=O)[C@H](CCCCN)NC(=O)[C@H](CO)NC(=O)[C@H](CO)NC(=O)CNC(=O)[C@H](CS)NC(=O)[C@H](Cc2c[nH]c3ccccc23)NC1=O
notes: also called CP1-I5C; cyclic peptide 6

binding result: binds
B9: 4 (peptide)
peptide: mBz-LLCWIGSSKNPYILCG-NH2
modifications: thioether N-15
SMILES: CC[C@H](C)[C@@H]1NC(=O)[C@H](Cc2c[nH]c3ccccc23)NC(=O)[C@H](CS)NC(=O)[C@H](CC(C)C)NC(=O)[C@H](CC(C)C)NC(=O)c2cccc(c2)CSC[C@@H](C(=O)NCC(N)=O)NC(=O)[C@H](CC(C)C)NC(=O)[C@H]([C@@H](C)CC)NC(=O)[C@H](Cc2ccc(O)cc2)NC(=O)[C@@H]2CCCN2C(=O)[C@H](CC(N)=O)NC(=O)[C@H](CCCCN)NC(=O)[C@H](CO)NC(=O)[C@H](CO)NC(=O)CNC1=O
notes: also called CP1-I3C; cyclic peptide 4

binding result: binds
B10: 5 (peptide)
peptide: mBz-LLICIGSSKNPYILCG-NH2
modifications: thioether N-15
SMILES: CC[C@H](C)[C@@H]1NC(=O)[C@H](CS)NC(=O)[C@H]([C@@H](C)CC)NC(=O)[C@H](CC(C)C)NC(=O)[C@H](CC(C)C)NC(=O)c2cccc(c2)CSC[C@@H](C(=O)NCC(N)=O)NC(=O)[C@H](CC(C)C)NC(=O)[C@H]([C@@H](C)CC)NC(=O)[C@H](Cc2ccc(O)cc2)NC(=O)[C@@H]2CCCN2C(=O)[C@H](CC(N)=O)NC(=O)[C@H](CCCCN)NC(=O)[C@H](CO)NC(=O)[C@H](CO)NC(=O)CNC1=O
notes: also called CP1-W4C; cyclic peptide 5

binding result: binds
B11: 9 (peptide)
peptide: mBz-LLIWIGSCKNPYILCG-NH2
modifications: thioether N-15
SMILES: CC[C@H](C)[C@@H]1NC(=O)[C@H](Cc2c[nH]c3ccccc23)NC(=O)[C@H]([C@@H](C)CC)NC(=O)[C@H](CC(C)C)NC(=O)[C@H](CC(C)C)NC(=O)c2cccc(c2)CSC[C@@H](C(=O)NCC(N)=O)NC(=O)[C@H](CC(C)C)NC(=O)[C@H]([C@@H](C)CC)NC(=O)[C@H](Cc2ccc(O)cc2)NC(=O)[C@@H]2CCCN2C(=O)[C@H](CC(N)=O)NC(=O)[C@H](CCCCN)NC(=O)[C@H](CS)NC(=O)[C@H](CO)NC(=O)CNC1=O
notes: also called CP1-S8C; cyclic peptide 9

binding result: binds
B12: 13 (peptide)
peptide: mBz-LLIWIGSSKNPYCLCG-NH2
modifications: thioether N-15
SMILES: CC[C@H](C)[C@@H]1NC(=O)[C@H](Cc2c[nH]c3ccccc23)NC(=O)[C@H]([C@@H](C)CC)NC(=O)[C@H](CC(C)C)NC(=O)[C@H](CC(C)C)NC(=O)c2cccc(c2)CSC[C@@H](C(=O)NCC(N)=O)NC(=O)[C@H](CC(C)C)NC(=O)[C@H](CS)NC(=O)[C@H](Cc2ccc(O)cc2)NC(=O)[C@@H]2CCCN2C(=O)[C@H](CC(N)=O)NC(=O)[C@H](CCCCN)NC(=O)[C@H](CO)NC(=O)[C@H](CO)NC(=O)CNC1=O
notes: also called CP1-I13C; cyclic peptide 13

binding result: binds
Binder: {mClBz(3)}-C(CH2C10H7)LIWIGSSKNPYILCG (bridge N-15; not fully specified (C-terminus, bridges)) [cyclic peptide 18, CP1-L1C-CH2C10H7]

binding result: binds
Binder: {mClBz(3)}-C(Bn)LIWIGSSKNPYILCG (bridge N-15; not fully specified (C-terminus, bridges)) [cyclic peptide 16, CP1-L1C-CH2C6H5]
